Measurements: patent US20250042976A1 (ROCHE DIAGNOSTICS OPERATIONS, published 2025)

Columns and labels:
RBD Omikron = RBD Omikron (SARS-CoV-2, Omicron variant)
RBD-L452Q F490S = RBD-L452Q F490S (SARS-CoV-2, UniProt P0DTC2)
RBD-E484K = RBD-E484K (SARS-CoV-2, UniProt P0DTC2)
RBD-E406W = RBD-E406W (SARS-CoV-2, UniProt P0DTC2)

B1: Antibody 1F12 (antibody, V domains shown)
VH: QSLEESGGDLVKPGASLTLTCTASGFSFSNNYVMCWVRQAPGKGLEWIGCINTGSGSTYYATWAKGRFTISKISSTTVTLQMTSLTAADTATYFCARSTTYYNYIGGNWIYVMDGFNLWGPGTLVPVSS
VL: AQVLTQTPSSVSEPVGGTVTINCQASENIYSSLAWYQQKPGQPPKLLIYDASDLASGVPSRFSGSGSGTEYTLTISGVECDDAATYYCQQGYTVDNIDNTFGGGTEVVVK
Kd (RBD Omikron): 0.28 nM
koff (RBD Omikron): 0.0012 s⁻¹
kon (RBD Omikron): 2e+06 M⁻¹ s⁻¹
Kd (RBD-L452Q F490S): 0.33 nM
koff (RBD-L452Q F490S): 0.0019 s⁻¹
kon (RBD-L452Q F490S): 5.8e+06 M⁻¹ s⁻¹
Kd (RBD-E484K): 0.31 nM
koff (RBD-E484K): 0.00081 s⁻¹
kon (RBD-E484K): 2.6e+06 M⁻¹ s⁻¹
Kd (RBD-E406W): 0.75 nM
koff (RBD-E406W): 0.0016 s⁻¹
kon (RBD-E406W): 2.1e+06 M⁻¹ s⁻¹
